This passage reports expression_or_secretion results from paper PMC4803301.

Series [1] can be described thus: time course of secreted Rspo1, anti-myc blot. To be noted: glycan lost; control: wild type.
Series [2] can be described thus: anti-myc blot of conditioned medium and lysate, HT1080. To be noted: glycan lost; control: wild type.
A short description of series [3]: anti-myc blot of conditioned medium and lysate, HT1080-Rspo1-MH. To be noted: glycan lost; control: siCtrl.

B1: R-spondin1 (Rspo1): 2WA (protein)
parent chain: MRLGLCVVALVLSWTHLTISSRGIKGKRQRRISAEGSQACAKGCELCSEVNGCLKCSPKLFILLERNDIRQVGVCLPSCPPGYFDARNPDMNKCIKCKIEHCEACFSHNFCTKCKEGLYLHKGRCYPACPEGSSAANGTMECSSPAQCEMSEWSPWGPCSKKQQLCGFRRGSEERTRRVLHAPVGDHAACSDTKETRRCTVRRVPCPEGQKRRKGGQGRRENANRNLARKESKEAGAGSRRRKGQQQQQQQGTVGPLTSAGPA
Turning to B1, the expression_or_secretion result in series [1] and in series [2] was “decreases” in each case.

B2: R-spondin1 (Rspo1): siDPY19L3 (protein)
parent chain: MRLGLCVVALVLSWTHLTISSRGIKGKRQRRISAEGSQACAKGCELCSEVNGCLKCSPKLFILLERNDIRQVGVCLPSCPPGYFDARNPDMNKCIKCKIEHCEACFSHNFCTKCKEGLYLHKGRCYPACPEGSSAANGTMECSSPAQCEMSEWSPWGPCSKKQQLCGFRRGSEERTRRVLHAPVGDHAACSDTKETRRCTVRRVPCPEGQKRRKGGQGRRENANRNLARKESKEAGAGSRRRKGQQQQQQQGTVGPLTSAGPA
Consider B2, for which the expression_or_secretion result in series [3] is “decreases”.

B3: R-spondin1 (Rspo1): siDPY19L3#2 (protein)
parent chain: MRLGLCVVALVLSWTHLTISSRGIKGKRQRRISAEGSQACAKGCELCSEVNGCLKCSPKLFILLERNDIRQVGVCLPSCPPGYFDARNPDMNKCIKCKIEHCEACFSHNFCTKCKEGLYLHKGRCYPACPEGSSAANGTMECSSPAQCEMSEWSPWGPCSKKQQLCGFRRGSEERTRRVLHAPVGDHAACSDTKETRRCTVRRVPCPEGQKRRKGGQGRRENANRNLARKESKEAGAGSRRRKGQQQQQQQGTVGPLTSAGPA
As for B3, the expression_or_secretion result in series [3] was “decreases”.
